Changes are numbered by the printed parent chain. Names and notes keep the numbering of the source. Values joined by “and” are separate entries in the source; they are usually repeats but may differ in a detail not shown here. Identical values can stand only once.

The target in data set [1] is T1, human βI-tryptase monomer (Homo sapiens, UniProt Q15661).
T1 construct: mature wild-type human βI-tryptase, Uniprot Q15661, Ile31-Pro275 (Ile16-Pro246 chymotrypsinogen numbering); also called monomeric βI-tryptase; β1-tryptase; source: Trichoplusia ni cells (baculovirus), secreted, purified (Ni-NTA, S200 SEC)
Description: SPR; Biacore T200; anti-tryptase IgG variant captured on a CM5 chip with anti-human IgG (Fc) antibody; threefold dilutions of human βI-tryptase monomer injected at 30 µL/min, 25 °C, 3-min association, 10-min dissociation; 1:1 binding model; representative single sensorgram sets. The settings on record: both partners purified. A general note: Surface plasmon resonance follows binding to a sensor surface in real time, without labels.
T1 sequence (Q15661 31-275): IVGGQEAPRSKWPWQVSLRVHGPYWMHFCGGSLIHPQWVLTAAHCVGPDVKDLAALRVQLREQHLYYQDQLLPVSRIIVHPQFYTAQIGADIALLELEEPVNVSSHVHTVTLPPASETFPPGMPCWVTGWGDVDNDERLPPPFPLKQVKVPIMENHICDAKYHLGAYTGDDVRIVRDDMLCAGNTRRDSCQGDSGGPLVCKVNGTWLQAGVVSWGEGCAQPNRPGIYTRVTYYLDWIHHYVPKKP

The target in data set [2] is T2, human βI-tryptase monomer (Homo sapiens, UniProt Q15661).
T2 construct: mature wild-type human βI-tryptase, Uniprot Q15661, Ile31-Pro275 (Ile16-Pro246 in chymotrypsinogen numbering); The SPR methods say only 'human βI-tryptase monomer'; The methods describe the monomeric form as the zymogen, which still carries the N-terminal His6 tag and enterokinase site before Ile16; also called monomeric βI-tryptase; β-tryptase; source: Trichoplusia ni cells (baculovirus, …)
Description: SPR; Biacore T200; antibody captured on a CM5 chip by immobilised mouse anti-human IgG (Fc); threefold dilutions of βI-tryptase monomer injected at 30 µL/min, 25 °C, 3-min association, 10-min dissociation; 1:1 Langmuir fit; n = 2. The conditions noted are these: both partners purified.
T2 sequence (Q15661 31-275): as above

For data set [3], the target named is T3, βI-tryptase tetramer mutant I99C (human, engineered disulfide bond in the large interface (C99)).
T3 construct: mature human βI-tryptase, Ile31-Pro275 of Uniprot Q15661 (Ile16-Pro246 in chymotrypsinogen numbering); numbers count on: chymotrypsinogen numbering; Loaded as a tetramer; with E104.v2 Fab it runs as a complex of the disulfide-linked dimer; also called disulfide-locked large interface mutant; not shown: His6, N-terminal, cleaved
Description: SEC; without heparin; tetrameric βI-tryptase (WT, Y75C or I99C) or zymogen monomer mixed with a twofold molar excess of Fab, 15 min at 25 °C; S200GL column in 10 mM MOPS pH 6.8, 2 M NaCl; fractions checked by SDS-PAGE. The conditions noted are these: both partners purified. On the technique in general: In gel filtration, larger molecules generally elute earlier.

Data set [4] deals with the molecule itself. Description: crystal structure; E104.v1 Fab with tetrameric βI-tryptase; crystals at 19 °C, 0.1 M Tris pH 8.5, 0.2 M CaCl2, 20% PEG 4000, 4% pentaerythritol ethoxylate; 3.0 Å.

T3 sequence (chain, as listed by the source I99C I99C): as the sequence (Q15661 31-275) above, with I88C counted along it

B1: E104.v2 IgG1 hinge variant G1-TH (antibody, V domains shown)
VH: EVQLVESGPGLVKPSETLSLTCTVSRFSLIGYAITWIRQPPGKGLEWIGGISSAATTFYSSWAKSRVTISRDTSKNQVSLKLSSVTAADTAVYYCARDPRGYGAALDRLDLWGQGTLVTVSS
VL: DIQMTQSPSSLSASVGDRVTITCQSIKSVYNNRLGWYQQKPGKAPKLLIYETSILTSGVPSRFSGSGSGTDFTLTISSLQPEDFATYYCAGGFDRSGDTTFGQGTKVEIK
In general, Kd refers to a measure of binding affinity in units of concentration. Read a high Kd as lower affinity. In data set [1], B1 displayed an equilibrium dissociation constant (Kd) of 0.56 nM.

B2: E104.v2 IgG1 hinge variant G1-H (antibody, V domains shown)
VH: B1 VH
VL: B1 VL
For the molecule B2, the affinity in data set [1], expressed as Kd, was 0.68 nM.

B3: humanized E104.v2 IgG1 (antibody, V domains shown)
VH: B1 VH
VL: B1 VL
notes: humanized E104.v2 VH: as the VH of Sm2 (E104.v1, PDB 6VVU heavy chain) with V71R and F78V (Kabat numbering); human IgG1 heavy chain constant region, the CH1 domain up to the upper hinge; upper hinge of human IgG1, wild type; human IgG1 heavy chain constant region after the upper hinge (core and lower hinge, CH2, CH3); v1 and v2 differ only in the heavy chain; IgG1; also called IgG1.v2; copies: 2 …
Molecule B3 returned a Kd in data set [2] of 0.6 nM.

B4: E104.v2 Fab (Fab, V domains shown)
VH: B1 VH
VL: B1 VL
notes: as the heavy chain of m6 (PDB 6VVU, Fab heavy chain) with the two framework changes V71R and F78V (Kabat numbering); as the light chain of m6 (PDB 6VVU, Fab light chain); No structure of v2 was obtained; it differs from v1 only at heavy chain framework positions 71 and 78; also called Fab E104.v2; source: E. coli, purified (Protein G, SP Sepharose, S75 SEC)
By stoichiometry N is commonly meant the number of molecules, sites or subunits per partner or assembly. As for B4, the “stoichiometry N” value in data set [3] was 2 Fab per disulfide-linked dimer.

B5: E104.v2 IgG1 hinge variant G1 + GGS (antibody, V domains shown)
VH: B1 VH
VL: B1 VL
notes: humanized E104.v2 VH: as the VH of Sm2 (E104.v1, PDB 6VVU heavy chain) with V71R and F78V (Kabat numbering); human IgG1 heavy chain constant region, the CH1 domain up to the upper hinge; human IgG1 heavy chain constant region after the upper hinge (core and lower hinge, CH2, CH3); IgG1 with extended upper hinge; copies: 2 + 2
In the case of B5, in data set [2], the dissociation constant Kd is 0.435 nM and 0.502 nM.

B6: E104.v2 IgG1 hinge variant G1-TH (antibody, V domains shown)
VH: B1 VH
VL: B1 VL
notes: humanized E104.v2 VH: as the VH of Sm2 (E104.v1, PDB 6VVU heavy chain) with V71R and F78V (Kabat numbering); human IgG1 heavy chain constant region, the CH1 domain up to the upper hinge; human IgG1 heavy chain constant region after the upper hinge (core and lower hinge, CH2, CH3); IgG1 with shortened upper hinge; copies: 2 + 2
On to B6, for which, in data set [2], the Kd was 0.56 nM and 0.471 nM.

B7: humanized E104.v1 IgG1 (antibody, V domains shown)
VH: B1 VH with R71V, V78F
VL: B1 VL
For the molecule B7, the Kd in data set [1] was 0.543 nM.

B8: E104.v2 IgG1 hinge variant G1.G5 (antibody, V domains shown)
VH: B1 VH
VL: B1 VL
notes: humanized E104.v2 VH: as the VH of Sm2 (E104.v1, PDB 6VVU heavy chain) with V71R and F78V (Kabat numbering); human IgG1 heavy chain constant region, the CH1 domain up to the upper hinge; engineered upper hinge: DKTHT of the human IgG1 upper hinge replaced by five glycines; human IgG1 heavy chain constant region after the upper hinge (core and lower hinge, CH2, CH3); IgG1 with a flexible upper …
As for B8, the Kd in data set [2] is 0.643 nM and 0.493 nM.

B9: E104.v2 IgG1 hinge variant G1 + (GGS)3 (antibody, V domains shown)
VH: B1 VH
VL: B1 VL
notes: as for B5
As to B9, the Kd in data set [2] is 0.626 nM and 0.41 nM.

B10: E104.v2 IgG1 hinge variant G1.G5 (antibody, V domains shown)
VH: B1 VH
VL: B1 VL
The molecule B10 displayed a Kd in data set [1] of 0.643 nM.

B11: E104.v2 IgG1 hinge variant G1-KTH (antibody, V domains shown)
VH: B1 VH
VL: B1 VL
notes: as for B6
As for B11, in data set [2], the Kd is 0.522 nM and 0.401 nM.

B12: E104.v2 IgG1 hinge variant G1-KTH (antibody, V domains shown)
VH: B1 VH
VL: B1 VL
B12 gave a dissociation constant (Kd) in data set [1] of 0.522 nM.

B13: E104.v2 IgG1 hinge variant G1-H (antibody, V domains shown)
VH: B1 VH
VL: B1 VL
notes: as for B6
For the molecule B13, the dissociation constant (Kd) in data set [2] is 0.68 nM and 0.494 nM.

B14: wild-type (WT) tetrameric human βI-tryptase (enzyme)
chain: not shown
notes: mature human βI-tryptase, Ile31-Pro275 of Uniprot Q15661 (Ile16-Pro246 in chymotrypsinogen numbering); N-terminus IVGG after enterokinase cleavage; Homotetramer; residues in the results are in chymotrypsinogen numbering; also called βI-tryptase tetramer; tetrameric β-tryptase; source: Trichoplusia ni cells (baculovirus), secreted, purified (Ni-NTA, S200 SEC); zymogen cleaved with enterokinase in …
For the molecule B14, in data set [4], the “stoichiometry N” value amounted to 4.

The record behind these values is article PMC7755903 (Nature Communications, 2020).
